In US20180326085A1 (Merck KGaA, published 2018):
Where a chain is given by its changes, count along the chain named.

B1: oa B10 (antibody, V domains shown)
VH: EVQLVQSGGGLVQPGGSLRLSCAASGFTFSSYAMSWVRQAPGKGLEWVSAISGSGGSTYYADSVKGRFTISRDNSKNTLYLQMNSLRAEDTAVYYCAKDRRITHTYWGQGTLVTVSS
VL: QSVLTQPPSTSGTPGQRVTISCFGSSSNVGVNTVNWYRQLPGTAPKLLIYDNNLRPSGVPERFSGSKSGTSASLAITGLQAEDEGDYYCQSYDSSLSDVVFGGGTKLTVLG
notes: one-armed (monovalent) anti-c-MET SEED molecule; also called one-armed B10
B2: oa CS06 (antibody, V domains shown)
VH: QVQLQQSGAEVKKPGSSAKVSCKASGGTFSSNAISWVRQAPGQGLEWMGGIIPIFGTAIYAQKFQGRVTITADESTSTAYMELSSLRSEDTAVYYCARDQRGYYYYYYYGMDVWGQGTTVTVSS
VL: QLVLTQSPSVSVAPGKTARITCGGNNIRNVGVHWYQKKPGQAPILVVYDDDDRPSGVPERFSGSNSGNTATLTISRVEAGDEADYYCQVWDSATDQRVFGGGTKLTVLG
notes: one-armed (monovalent) anti-c-MET SEED molecule; also called one-armed CS06
B3: oa B10v5 (antibody, V domains shown)
VH: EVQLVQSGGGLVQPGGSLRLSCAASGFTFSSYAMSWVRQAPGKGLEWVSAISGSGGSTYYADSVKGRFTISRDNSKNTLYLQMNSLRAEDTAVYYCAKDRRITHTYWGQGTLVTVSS
VL: EPVLTQPPSVSVAPGETATIPCGGDSLGSKIVHWYQQRPGQAPLLVVYDDAARPSGIPERFSGSKSGTTATLTISSVEAGDEADYFCQVYDYHSDVEVFGGGTKLTVLG
notes: one-armed (monovalent) anti-c-MET SEED molecule; also called one-armed B10v5
B4: B10v5x225-L (bispecific antibody, V domains shown)
VL (c-MET arm): EPVLTQPPSVSVAPGETATIPCGGDSLGSKIVHWYQQRPGQAPLLVVYDDAARPSGIPERFSGSKSGTTATLTISSVEAGDEADYFCQVYDYHSDVEVFGGGTKLTVLGQPKAA
VH (c-MET arm): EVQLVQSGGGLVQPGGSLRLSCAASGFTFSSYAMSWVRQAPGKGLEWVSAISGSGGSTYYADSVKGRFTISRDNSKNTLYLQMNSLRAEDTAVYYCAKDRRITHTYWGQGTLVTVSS
VL (EGFR arm): DIQMTQSPSSLSASVGDRVTITCRASQSIGTNIHWYQQKPGKAPKLLIKYASESISGVPSRFSGSGYGTDFTLTISSLQPEDVATYYCQQNNNWPTTFGQGTKVEIK
VH (EGFR arm): EVQLVQSGAEVKKPGASVKVSCKASGFSLTNYGVHWMRQAPGQGLEWIGVIWRGGNTDYNTPFTSRVTITSDKSTSTAYMELSSLRSEDTAVYYCARALTYYDYEFAYWGQGTLVTVSS
notes: c-MET x EGFR SEED bispecific
B5: CS06x225-H (bispecific c-MET x EGFR SEEDbody) (bispecific antibody, V domains shown)
VH 1: B2 VH
VL 1: QLVLTQSPSVSVAPGKTARITCGGNNIRNVGVHWYQKKPGQAPILVVYDDDDRPSGVPERFSGSNSGNTATLTISRVEAGDEADYYCQVWDSATDQRVFGGGTKLTVLGQPKAG
VH 2: B4 VH (EGFR arm) with R53S, T100D
VL 2: B4 VL (EGFR arm) with N93E, T96N
notes: The rest is a SEEDbody: IgG1 hinge-CH2-SEED CH3 (AG/GA)
B6: B10v5x225-H (bispecific c-MET x EGFR SEEDbody) (bispecific antibody, V domains shown)
VH 1: not shown
VL 1: B4 VL (c-MET arm)
VH 2: B4 VH (EGFR arm) with R53S, T100D
VL 2: B4 VL (EGFR arm) with N93E, T96N
notes: hu225-H); SEEDbody format (IgG1 hinge-CH2-SEED CH3)
B7: oa 425 (antibody, V domains shown)
VH: QVQLVQSGAEVKKPGASVKVSCKASGYTFTSHWMHWVRQAPGQGLEWIGEFNPSNGRTNYNEKFKSKATMTVDTSTNTAYMELSSLRSEDTAVYYCASRDYDYDGRYFDYWGQGTLVTVSS
VL: DIQMTQSPSSLSASVGDRVTITCSASSSVTYMYWYQQKPGKAPKLLIYDTSNLASGVPSRFSGSGSGTDYTFTISSLQPEDIATYYCQQWSSHIFTFGQGTKVEIKR
notes: one-armed (monovalent) anti-EGFR SEED molecule
B8: oa 225-H (antibody, V domains shown)
VH: B4 VH (EGFR arm) with R53S, T100D
VL: B4 VL (EGFR arm) with N93E, T96N
notes: as for B7

Biological target: T1, c-MET on cells (human, UniProt P08581)
T1 construct: endogenous receptor on the cell surface; for A549 cells m4 is used; also called HGFR; on NCI-H441, EBC-1, A431, MKN-45, SK-MEL2 or HepG2 cells (cell line under assay)
Experiment: flow cytometry, HepG2 cells (c-MET+ EGFR+)

| MFI at 100 nM | Binder |
| --- | --- |
| 69 | B1 |
| 296 | B2 |
| 399 | B3 |

Biological target: T2, c-MET and EGFR co-expressed on cells (human, UniProt P08581;P00533)
T2 construct: endogenous receptor on the cell surface; not a complex: two separate receptors on the same cell; used as target only for bispecific c-MET x EGFR molecules, whose cell staining cannot be split between the two arms; also called cells that carry both receptors: NCI-H441, EBC-1, A431, MKN-45, A549, HepG2 (cell line under assay)
Experiment: flow cytometry, HepG2 cells (c-MET+ EGFR+)

| MFI at 100 nM | Binder |
| --- | --- |
| 451 | B4 |
| 198 | B5 |
| 352 | B6 |

Biological target: T3, EGFR on cells (human, UniProt P00533)
T3 construct: endogenous receptor on the cell surface; for A549 cells m5 is used; also called on NCI-H441, EBC-1, A431, MKN-45, HepG2 or T47D cells (cell line under assay)
Experiment: flow cytometry, HepG2 cells (c-MET+ EGFR+)

| MFI at 100 nM | Binder |
| --- | --- |
| 50 | B7 |
| 53 | B8 |

Biological target: T4, biotinylated recombinant human c-MET ECD (HGFR extracellular domain) (human, UniProt P08581 25-932, biotinylated (sites not given))
T4 construct: extracellular domain; also called human c-MET ECD-His
Experiment: HGF competition ELISA: HGF on the plate, biotinylated c-MET ECD pre-incubated with the antibody; blocked ligand HGF

| IC50 (read off the curve) [nM] | Binder |
| --- | --- |
| ~8 | B2 |
| ~6 | B3 |

Biological target: T1, c-MET on cells
Experiment: flow cytometry, EBC-1 cells (c-MET+++ EGFR++)

| MFI at 100 nM | Binder |
| --- | --- |
| 952 | B1 |
| 2630 | B2 |
| 2310 | B3 |

Biological target: T2, c-MET and EGFR co-expressed on cells
Experiment: flow cytometry, EBC-1 cells (c-MET+++ EGFR++)

| MFI at 100 nM | Binder |
| --- | --- |
| 2040 | B4 |
| 1560 | B5 |
| 2060 | B6 |

Biological target: T3, EGFR on cells
Experiment: flow cytometry, EBC-1 cells (c-MET+++ EGFR++)

| MFI at 100 nM | Binder |
| --- | --- |
| 212 | B7 |
| 287 | B8 |

Biological target: T1, c-MET on cells
Experiment: flow cytometry, A431 cells (c-MET+ EGFR+++)

| MFI at 100 nM | Binder |
| --- | --- |
| 103 | B1 |
| 37 | B2 |
| 49 | B3 |

Biological target: T2, c-MET and EGFR co-expressed on cells
Experiment: flow cytometry, A431 cells (c-MET+ EGFR+++)

| MFI at 100 nM | Binder |
| --- | --- |
| 847 | B4 |
| 1860 | B5 |
| 1760 | B6 |

Biological target: T3, EGFR on cells
Experiment: flow cytometry, A431 cells (c-MET+ EGFR+++)

| MFI at 100 nM | Binder |
| --- | --- |
| 1150 | B7 |
| 2230 | B8 |

Biological target: T5, EGFR (soluble extracellular domain) (human, UniProt P00533)
T5 construct: soluble extracellular domain; also called Human EGFR extracellular domain, R&D Systems 1095-ER
Experiment: BLI (Octet), antibody on anti-human Fc biosensors, soluble EGFR ECD as analyte

| Kd [nM] | koff [s⁻¹] | kon [M⁻¹ s⁻¹] | Binder |
| --- | --- | --- | --- |
| 22 | 0.012 | 530000 | B7 |
| 0.14 | 0.00049 | 3.6e+06 | B8 |
| 0.12 | 0.00039 | 3.3e+06 | B5 |
| 0.15 | 0.00053 | 3.5e+06 | B6 |

Biological target: T4, biotinylated recombinant human c-MET …
Experiment: BLI (Octet), antibody on anti-human Fc biosensors, soluble c-MET ECD as analyte

| Kd [nM] | koff [s⁻¹] | kon [M⁻¹ s⁻¹] | Binder |
| --- | --- | --- | --- |
| 12 | 0.0012 | 100000 | B1 |
| 0.19 | 0.00021 | 1.1e+06 | B2 |
| 0.12 | 0.00039 | 3.3e+06 | B5 |
| 0.36 | 0.00015 | 400000 | B6 |
| 0.38 | 0.00016 | 400000 | B3 |

Biological target: T1, c-MET on cells
Experiment: flow cytometry, SK-MEL2 cells (c-MET+ EGFR-)

| MFI at 100 nM | binding result | Binder |
| --- | --- | --- |
| 39 |  | B1 |
| 17 | no binding (tested: 100 nM) | B7 |
| 213 |  | B2 |
| 20 | no binding (tested: 100 nM) | B8 |
| 341 |  | B4 |
| 164 |  | B5 |
| 222 |  | B6 |
| 272 |  | B3 |

Biological target: T1, c-MET on cells
Experiment: flow cytometry, MKN-45 cells (c-MET+++ EGFR++)

| MFI at 100 nM | Binder |
| --- | --- |
| 916 | B1 |
| 1490 | B2 |
| 1500 | B3 |

Biological target: T2, c-MET and EGFR co-expressed on cells
Experiment: flow cytometry, MKN-45 cells (c-MET+++ EGFR++)

| MFI at 100 nM | Binder |
| --- | --- |
| 1220 | B4 |
| 1550 | B5 |
| 1330 | B6 |

Biological target: T3, EGFR on cells
Experiment: flow cytometry, MKN-45 cells (c-MET+++ EGFR++)

| MFI at 100 nM | Binder |
| --- | --- |
| 184 | B7 |
| 199 | B8 |

Biological target: T2, c-MET and EGFR co-expressed on cells
Experiment: flow cytometry, A549 cells (c-MET+ EGFR++)

| MFI at 100 nM | Binder |
| --- | --- |
| 249 | B4 |
| 292 | B5 |
| 335 | B6 |

Biological target: T6, EGFR (epidermal growth factor receptor) on A549 cells (human, UniProt P00533 25-1210)
T6 construct: whole, on cells; Endogenous receptor of A549 cells; phosphorylation read out in cell lysates
Experiment: flow cytometry, A549 cells (c-MET+ EGFR++)

| MFI at 100 nM | Binder |
| --- | --- |
| 170 | B7 |
| 184 | B8 |

Biological target: T7, c-MET (hepatocyte growth factor receptor) on A549 cells (human, UniProt P08581 25-1390)
T7 construct: whole, on cells; Endogenous receptor of A549 cells; phosphorylation read out in cell lysates; also called HGFR
Experiment: flow cytometry, A549 cells (c-MET+ EGFR++)

| MFI at 100 nM | Binder |
| --- | --- |
| 130 | B1 |
| 147 | B2 |
| 91 | B3 |

Biological target: T3, EGFR on cells
Experiment: flow cytometry at 300 nM on mixed EBC-1 and T47D (low EGFR, no c-MET) cells, anti-human Fc detection; T47D population

| binding result | Binder |
| --- | --- |
| binds | B4 |

Biological target: T1, c-MET on cells
Experiment: flow cytometry on NCI-H441 cells (express c-MET and EGFR), FITC anti-human Fc, n=3

| EC50 (read off the curve) [nM] | Binder |
| --- | --- |
| ~0.3 | B2 |
| ~1 | B3 |

Biological target: T2, c-MET and EGFR co-expressed on cells
Experiment: as above

| EC50 (read off the curve) [nM] | Binder |
| --- | --- |
| ~0.3 | B5 |
| ~0.5 | B6 |

Biological target: T3, EGFR on cells
Experiment: as above

| EC50 (read off the curve) [nM] | Binder |
| --- | --- |
| ~0.4 | B8 |
